Assay results taken from PMC12212138.

Experiments:
PARP4 WGR-CAT (human) = molecular target: T1, PARP4 WGR-CAT (human) (UniProt Q9UKK3); assay: FP; conditions: FP: 50 mM Tris pH 7.5, 50 mM NaCl, 1 mM MgCl2, 0.05% NP40, 2 mM DTT, 5% glycerol, 25 ug/ml BSA, room temp 30 min; EMSA: 50 mM Tris pH 7.5, 50 mM NaCl, 4% …
T1 sequence: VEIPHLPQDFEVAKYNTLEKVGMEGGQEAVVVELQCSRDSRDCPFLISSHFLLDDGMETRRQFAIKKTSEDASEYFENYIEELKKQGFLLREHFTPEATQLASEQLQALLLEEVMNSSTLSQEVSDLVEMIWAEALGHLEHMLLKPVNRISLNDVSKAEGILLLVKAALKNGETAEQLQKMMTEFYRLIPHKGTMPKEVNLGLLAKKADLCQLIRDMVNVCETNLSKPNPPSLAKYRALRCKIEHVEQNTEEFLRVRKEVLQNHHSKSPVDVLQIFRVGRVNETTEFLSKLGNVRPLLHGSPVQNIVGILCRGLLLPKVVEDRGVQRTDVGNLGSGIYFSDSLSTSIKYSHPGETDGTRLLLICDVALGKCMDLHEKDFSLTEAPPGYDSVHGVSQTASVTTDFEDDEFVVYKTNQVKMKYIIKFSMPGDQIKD

[1] = molecular target: T2, PARP4 BRCT-WGR-CAT WT (human) (UniProt Q9UKK3); assay: EMSA; conditions: FP: 50 mM Tris pH 7.5, 50 mM NaCl, 1 mM MgCl2, 0.05% NP40, 2 mM DTT, 5% glycerol, 25 ug/ml BSA, room temp 30 min; EMSA: 50 mM Tris pH 7.5, 50 mM NaCl, 4% …
T2 sequence: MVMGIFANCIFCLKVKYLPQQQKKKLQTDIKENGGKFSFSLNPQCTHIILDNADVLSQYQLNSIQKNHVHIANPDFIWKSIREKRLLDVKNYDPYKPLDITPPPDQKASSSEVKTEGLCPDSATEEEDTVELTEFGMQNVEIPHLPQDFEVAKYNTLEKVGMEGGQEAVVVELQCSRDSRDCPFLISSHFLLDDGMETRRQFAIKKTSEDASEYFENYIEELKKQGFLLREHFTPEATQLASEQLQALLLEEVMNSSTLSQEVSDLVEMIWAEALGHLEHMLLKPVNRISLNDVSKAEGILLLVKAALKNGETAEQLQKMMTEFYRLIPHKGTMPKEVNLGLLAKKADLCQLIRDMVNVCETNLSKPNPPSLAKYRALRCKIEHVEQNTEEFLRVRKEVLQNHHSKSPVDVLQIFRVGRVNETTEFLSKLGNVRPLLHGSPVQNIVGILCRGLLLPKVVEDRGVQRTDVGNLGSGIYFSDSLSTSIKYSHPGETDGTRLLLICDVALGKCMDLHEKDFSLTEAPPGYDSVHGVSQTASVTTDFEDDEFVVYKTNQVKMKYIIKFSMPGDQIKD

Sequence	Kd (PARP4 WGR-CAT (human)) [µM]	Kd [1] [µM]
GGCUGGCUUUAGCUCAGCGGUUACUUCGCGUGUCAUCAAACCACCUCUCUGGGUUGUUCGAGACCCGCGGGCGCUCUCCAGCCCUCUU [vtRNA1-3]	93	–
CCGCGGGC / GCUCAGCGG [Probe 3]	–	11
CCGCGGGC / GCUCGCGG [Probe 4]	–	7
